Assay results reported in patent US20240076371A1, “COMPOSITIONS AND METHODS FOR TREATING OSTEOARTHRITIS, RHEUMATOID ARTHRITIS, AND JOINT AND TENDON DISORDERS” (BOARD OF REGENTS, THE UNIVERSITY OF TEXAS SYSTEM, priority 2021, published 2024).

What was measured:
[1] = system: knee joint region (synovium); assay: In vivo antibody binding pattern in the knee joint (immunofluorescence); set-up: species or system mouse
Description: Immunofluorescent staining. The isolated femur and tibia bones were fixed in 4% paraformaldehyde for 2 days prior to decalcification with 10% EDTA (pH 7.5) for 3 weeks, and then dehydrated in 30% sucrose/PBS for 3 days. Samples were embedded in the Tissue-Tek CRYO OCT compound (Thermo Fisher Scientific, Pittsburgh, PA, USA), and 12-μm-thick sections were collected on glass slides. Sections were blocked and permeabilized with 2% goat serum, 2% fish skin gelatin, 0.025% Triton X-100 and 1% bovine serum albumin in PBS. The sections were incubated overnight at 4° C. with affinity-purified antibodies against Cx43 (CT) (1:100) (Cherian P P, et al. The Journal of biological chemistry. 2003; 278(44):43146-56), for 1 hour with the appropriate secondary antibody. Slides were mounted using Vectashield mounting medium (H-1000, Vector Lab). Confocal fluorescence imaging was performed using a confocal laser scanning microscope (LSM770, Carl Zeiss, Oberkochen, Germany).
M1 antibody binds to synovium and inhibits hemichannel opening in OA. Due to the dense nature of cartilage and large size of antibodies, a widely held perception is that antibodies are unable to penetrate the cartilage matrix. To determine the antibody binding pattern in the knee joint region, M1 antibody (25 mg/kg) with human IgG epitope or saline was intraperitoneally (i.p.) injected at 30 mins after DMM surgery. As shown in the diagram (FIG. 8A), mice were euthanized and perfused before isolation of hindlimbs at one or two weeks after injection. Frozen tissue sections were prepared and immuno-labeled with Alexa Fluor 594-conjugated anti-human IgG secondary antibody. […] The synovium of joints comprises macrophage-like type A cells, which are responsible for phagocytosing synovial fluid, and fibroblast-like type B cells, which produce hyaluronic acid and mucin to nourish and mechanically protect, respectively, the underlying articular cartilage (Donahue H J, et al. Nature reviews Rheumatology. 2017; 14(1):42-51). […]

[2] = system: post-traumatic OA model (DMM) in male C57BL/6 mice; assay: DMM OA model: immunohistochemistry of Col X and MMP13 in articular cartilage; type: in vivo, mouse
Experimental: Destabilization of the medial meniscus (DMM) surgery was performed on the right knee joint of mice (Glasson S S, et al. Osteoarthritis and cartilage. 2007; 15(9):1061-9). Briefly, a 3 mm longitudinal incision over the distal patella to proximal tibial plateau was made. The joint capsule immediately medial to the patellar tendon was incised with a #15 blade and the joint capsule opened with micro-iris scissors. Blunt dissection of the fat pad over the intercondylar area was then performed to expose the intercondylar region, providing visualization of the meniscotibial ligament of the medial meniscus. Mild hemorrhage from the fat pad upon blunt dissection was controlled by pressure from absorption spears. Sectioning of medial meniscotibial ligament with micro-surgical knife, with the blade directed proximo-laterally, gave destabilization of the medial meniscus (DMM). Sham surgery was performed with the ligament visualized but not transected. Immunohistochemistry. The ABC (avidin-biotin-peroxidase complex) Immunostaining Assay Kit (Vector Laboratories, PK-6101) was used. Briefly, bone tissue sections were antigen unmasked using sodium citrate buffer (pH 6.0) at 65° C. for 2 h for MMP13 staining and trypsin digestion buffer (pH 7.8) at 37° C. for 30 min for collagen X staining. Bone tissue sections were then treated with goat normal serum for 20 min at room temperature to block nonspecific background staining. Tissue sections were stained with anti-MMP13 polyclonal antibody (1:200 dilution, Abcam, ab39012), or labeled with anti-collagen X monoclonal antibody (1:100 dilution, Thermo Fisher, 14-9771-82) at 4° C. overnight. Then, the sections were incubated for 30 min with biotin-labeled secondary antibody and VECTASTAIN ABC Reagent for 30 min Samples were washed in PBS buffer and developed in DAB (SK4100) chromogen solution (Vector Laboratories, Burlingame, CA, USA). Tissues were then counterstained with VECTOR Hematoxylin (H-3401) for 5 min at room temperature. Slides were then dehydrated, cleared, and mounted. Sections were photographed using the Keyence microscope (BZ-X710, Keyence, Osaka, Japan). The percentage of MMP13 or Col X-positive chondrocytes were quantified using NIH Image J software.

[3] = molecular target: T1, Cx43 hemichannel (Mus musculus, UniProt P23242); assay: In vivo Evans Blue dye uptake assay in synovium after DMM; conditions: 25 mg/kg at 30 mins after DMM surgery, Evans Blue 200 mg/kg at two weeks after the treatment; DMM increased opening by 2 folds
T1 construct: from tissue; host or cells: synovium of male C57BL/6 mice after DMM surgery (in vivo)
Experimental: In vivo dye uptake assay. Evans Blue dye (Mw: 900 Da) (200 mg/kg) and FITC-dextran (Mw: 10,000 Da) (200 mg/kg) were co-injected […] post-antibody treatment via the tail vein. One-hour post administration of the dye, mice were anesthetized, and cardiac perfusion was performed with cold PBS and 4% paraformaldehyde. Both hindlimbs were isolated and prepared for frozen sections. Sections were stained with DAPI and photographed using the Keyence microscope (BZ-X710, Keyence, Osaka, Japan). The intensity of dye uptake was quantified by NIH Image J software.
To determine the Cx43 hemichannel activity in vivo, Evans Blue dye uptake assay was performed. Mice were treated with saline or Cx43 antibody (M1 antibody) (25 mg/kg) at 30 mins after DMM surgery. Tail vein injection of Evans Blue dye (200 mg/kg) was performed at two weeks after the treatment, and Evans Blue dye uptake intensity was quantified in synovium region. […] Frozen sections prepared from saline-treated mice were immuno-labeled with the M1 antibody, further validated the role of the M1 antibody in blocking the osteoarthritis induced hemichannel opening in synoviocytes that express Cx43 (FIG. 11C).

T1 sequence (P23242 whole entry): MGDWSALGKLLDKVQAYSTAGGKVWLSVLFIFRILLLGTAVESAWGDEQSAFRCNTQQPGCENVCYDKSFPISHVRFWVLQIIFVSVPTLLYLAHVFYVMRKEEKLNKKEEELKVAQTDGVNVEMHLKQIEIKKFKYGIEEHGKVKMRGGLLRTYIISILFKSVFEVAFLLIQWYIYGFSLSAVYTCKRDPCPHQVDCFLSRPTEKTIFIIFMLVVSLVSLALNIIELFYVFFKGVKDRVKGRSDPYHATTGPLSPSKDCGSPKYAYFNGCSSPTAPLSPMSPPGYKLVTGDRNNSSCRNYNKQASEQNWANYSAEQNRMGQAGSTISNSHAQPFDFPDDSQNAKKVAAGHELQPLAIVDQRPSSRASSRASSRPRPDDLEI

B1: M1 antibody: antibody with variable heavy chain SEQ ID NO: 58 and variable light chain SEQ ID NO: 60; inhibits or blocks opening of Cx43 hemichannel (antibody, V domains shown)
VH: EVQLQQPGAELVKPGASVKLSCKASGYTFTSYYMYWVKQRPGQGLEWIGGINPSNGGTNFNEKFKNKATLTVDKSSSTAYMQLSSLTSEDSAVYYCTREGNPYYTMNYWGQGTSVTVSS
VL: DIVMTQSPSSLSVSAGEKVTMSCKSSQSLLNSGNQKTYLAWYQQKPGQPPKLLIYGASTRESGVPDRFTGSGSGTDFTLTISSVQAEDLAVYYCQNDHSYPFTFGSGTKLEIK
antibody binding site in the knee joint region ([1]; 25 mg/kg i.p. at 30 mins after DMM surgery, anti-human IgG secondary antibody): primarily localized in the synovium region | antibody signal after administration ([1]; 25 mg/kg i.p. at 30 mins after DMM surgery, one or two weeks after injection): detectable at both one and two weeks | time after administration at which antibody signals were detected ([1]; synovium region): more than 2 weeks | distribution of MMP13-positive chondrocytes in articular cartilage zones ([2]; DMM mice, eight weeks, saline: three zones): localized mainly in the middle and deep zones | percentage of Col X positive cells ([2]; articular cartilage, eight weeks following DMM, i.p. twice, vehicle-treated 52%): 38% | percentage of MMP-13-positive cells in the articular cartilage ([2]; eight weeks after DMM, i.p. twice, saline-treated 36%): 27% | MMP13 score, ratio of integrated optical density (IOD) to articular cartilage area ([2]; single i.p. injection at 30 minutes post-surgery, eight weeks after DMM, saline 0.17±0.016): 0.10±0.009 | DMM-increased hemichannel opening (Evans Blue dye uptake intensity in synovium region) [3]: blocked
